Laboratory results from patent EP4786492A1.
Numbering of substitutions follows the chain as printed.

B1: Hab006VL4VH2-hFc (scFv, part only; not given: scFv linker and human IgG1 Fc, V domains shown, not shown: another chain or arm of the molecule; a dimerising Fc or GST; small tags and cut ends)
VL: DIVMTQSPDSLAVSLGERATINCRATKSISKYLAWYQQKPGQTNKLLIFSGSTLQSGVPDRFSGSGSGTDFTLTISSLQAEDVAVYYCQQHHEYPYTFGGGTKVEIK
VH: EVQLVQSGAEVKKPGASVKVSCKASGYTFTSYWMHWVRQAPGQRLEWMGVIDPSDSLANYNQEFKGRVTLTVDTSASTAYMELSSLRSEDTAVYYCARDSTVVAPMDYWGQGTTVTVSS
B2: Hab009VL1aVH1-hFc (scFv, part only; not given: scFv linker and human IgG1 Fc, V domains shown, not shown: another chain or arm of the molecule; a dimerising Fc or GST; small tags and cut ends)
VL: DIVMTQSPLSLPVTPGEPASISCRASQTISDYLHWYLQKPGQSPQLLIKYASQSISGVPDRFSGSGSGSDFTLKISRVEAEDVGVYYCQQGHSFPLTFGQGTKLEIK
VH: EVQLVQSGAEVKKPGASVKVSCKASGYTFTSYWMHWVRQAPGQRLEWMGTIYPGNSDTRYNQKFKDRVTITADTSASTAYMELSSLRSEDTAVYYCTRSYDYGDLDYWGQGTTVTVSS
B3: Hab009VL2aVH1-hFc (scFv, part only; not given: VL-VH linker and human IgG1 Fc, V domains shown, not shown: another chain or arm of the molecule; a dimerising Fc or GST; small tags and cut ends)
VL: B2 VL with Q45R, S69T
VH: B2 VH

What follows are binders tested against human DLL4 protein (Acro, Cat. No. DL4-H5227) (human) (UniProt Q9NR61) (assay: ELISA, coated hDLL4; maximum over 0.1, 1, 10, 100 nM antibody).
human DLL4 protein (Acro, Cat. No. DL4-H5227) (human), sequence (Q9NR61 27-524 limits assumed): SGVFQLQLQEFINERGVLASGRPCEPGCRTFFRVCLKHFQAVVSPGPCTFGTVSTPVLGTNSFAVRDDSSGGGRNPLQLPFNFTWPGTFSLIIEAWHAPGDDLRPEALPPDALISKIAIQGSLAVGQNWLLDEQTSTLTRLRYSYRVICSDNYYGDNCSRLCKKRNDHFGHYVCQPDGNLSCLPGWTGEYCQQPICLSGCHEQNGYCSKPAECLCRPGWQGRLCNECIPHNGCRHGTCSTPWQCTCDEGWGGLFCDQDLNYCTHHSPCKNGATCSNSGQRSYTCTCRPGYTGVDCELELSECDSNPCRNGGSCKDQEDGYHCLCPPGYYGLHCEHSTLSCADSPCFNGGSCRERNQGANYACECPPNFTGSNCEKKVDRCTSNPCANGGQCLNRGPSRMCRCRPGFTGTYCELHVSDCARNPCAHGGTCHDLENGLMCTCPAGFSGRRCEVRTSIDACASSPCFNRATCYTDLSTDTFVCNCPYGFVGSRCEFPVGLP

| Binder | Emax of OD450 nm binding value [OD450 nm] |
| --- | --- |
| B1 | 0.06 |
| B2 | 0.08 |
| B3 | 0.06 |

Each binder was assayed against monkey DLL3 on CHO-K1-cyno DLL3 cells (cynomolgus monkey) (assay: FACS, CHO-K1-cyno DLL3 cells, 0.16 nM antibody).
monkey DLL3 on CHO-K1-cyno DLL3 cells (cynomolgus monkey), sequence (chain, as listed by the source limits assumed): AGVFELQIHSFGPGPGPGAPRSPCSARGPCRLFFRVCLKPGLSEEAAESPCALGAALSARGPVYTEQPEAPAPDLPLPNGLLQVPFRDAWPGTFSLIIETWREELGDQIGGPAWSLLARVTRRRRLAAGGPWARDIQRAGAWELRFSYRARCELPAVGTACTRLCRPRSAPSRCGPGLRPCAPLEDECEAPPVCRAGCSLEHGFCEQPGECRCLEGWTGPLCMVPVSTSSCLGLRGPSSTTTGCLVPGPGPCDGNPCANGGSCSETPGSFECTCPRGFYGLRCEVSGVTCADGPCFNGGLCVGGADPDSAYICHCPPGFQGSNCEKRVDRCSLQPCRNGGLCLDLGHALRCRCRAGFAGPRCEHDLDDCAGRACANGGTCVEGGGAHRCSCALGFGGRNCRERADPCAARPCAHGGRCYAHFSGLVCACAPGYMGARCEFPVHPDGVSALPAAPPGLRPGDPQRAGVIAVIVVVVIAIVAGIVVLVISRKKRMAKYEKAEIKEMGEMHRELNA

| Binder | MFI [MFI] |
| --- | --- |
| B1 | 3970 |
| B2 | 1640 |
| B3 | 13700 |

The binders below were run against human DLL3 protein expressed on CHO-K1 recombinant cells (human DLL3 extracellular segment fused to EpCAM transmembrane and intracellular regions) (human) (UniProt Q9NYJ7) (assay: FACS, CHO-K1 hDLL3 cells, 0.0064 nM antibody).
human DLL3 protein expressed on CHO-K1 recombinant cells (human DLL3 extracellular segment fused to EpCAM transmembrane and intracellular regions) (human), sequence (Q9NYJ7 other isoform, or with tags, fused parts or gaps limits assumed): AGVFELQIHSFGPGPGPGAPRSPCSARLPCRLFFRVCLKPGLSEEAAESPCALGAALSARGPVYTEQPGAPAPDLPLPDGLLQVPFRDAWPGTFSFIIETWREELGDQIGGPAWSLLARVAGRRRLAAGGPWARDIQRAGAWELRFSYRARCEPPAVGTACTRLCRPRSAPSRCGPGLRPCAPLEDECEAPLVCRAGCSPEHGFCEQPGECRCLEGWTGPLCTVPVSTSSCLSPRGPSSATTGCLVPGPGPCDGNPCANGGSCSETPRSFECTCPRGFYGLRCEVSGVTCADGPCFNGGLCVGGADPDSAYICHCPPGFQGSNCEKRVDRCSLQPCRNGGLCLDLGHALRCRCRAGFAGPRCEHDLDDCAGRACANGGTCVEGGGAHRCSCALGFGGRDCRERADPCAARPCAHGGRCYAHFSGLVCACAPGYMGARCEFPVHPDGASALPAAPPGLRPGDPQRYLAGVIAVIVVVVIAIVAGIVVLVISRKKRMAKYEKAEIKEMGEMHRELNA

| Binder | MFI [MFI] |
| --- | --- |
| B1 | 458 |
| B2 | 452 |
| B3 | 476 |

What follows are binders tested against mouse DLL3 on CHO-K1-mDLL3 cells (mouse) (UniProt O88516) (assay: FACS, CHO-K1-mDLL3 cells, 0.16 nM antibody).
mouse DLL3 on CHO-K1-mDLL3 cells (mouse), sequence (O88516 other isoform, or with tags, fused parts or gaps limits assumed): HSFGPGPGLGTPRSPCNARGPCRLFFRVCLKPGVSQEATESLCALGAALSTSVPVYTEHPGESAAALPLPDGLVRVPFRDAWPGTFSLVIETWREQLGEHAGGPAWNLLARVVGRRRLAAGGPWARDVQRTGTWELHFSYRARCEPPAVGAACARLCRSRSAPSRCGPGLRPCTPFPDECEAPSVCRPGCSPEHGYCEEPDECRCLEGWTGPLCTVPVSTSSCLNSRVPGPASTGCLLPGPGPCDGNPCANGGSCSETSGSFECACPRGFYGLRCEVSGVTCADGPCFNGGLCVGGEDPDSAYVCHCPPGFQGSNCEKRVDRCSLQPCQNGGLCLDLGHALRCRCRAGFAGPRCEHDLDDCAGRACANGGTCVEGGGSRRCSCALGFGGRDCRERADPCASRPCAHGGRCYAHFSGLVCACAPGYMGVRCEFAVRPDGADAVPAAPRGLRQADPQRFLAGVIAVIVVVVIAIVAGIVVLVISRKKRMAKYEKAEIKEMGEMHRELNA

| Binder | MFI [MFI] |
| --- | --- |
| B1 | 343 |
| B2 | 258 |
| B3 | 300 |

The binders below were run against monkey DLL3 on CHO-K1-cyno DLL3 cells (cynomolgus monkey) (assay: FACS, CHO-K1-cyno DLL3 cells, 0.00128 nM antibody).

| Binder | MFI [MFI] |
| --- | --- |
| B1 | 276 |
| B2 | 120 |
| B3 | 1340 |

These binders were tested against monkey DLL3 on CHO-K1-cyno DLL3 cells (cynomolgus monkey) (assay: FACS, CHO-K1-cyno DLL3 cells, 0.0064 nM antibody).

| Binder | MFI [MFI] |
| --- | --- |
| B1 | 494 |
| B2 | 178 |
| B3 | 3160 |

These binders were tested against human DLL3 protein expressed on CHO-K1 recombinant cells (human DLL3 extracellular segment fused to EpCAM transmembrane and intracellular regions) (human) (UniProt Q9NYJ7) (assay: FACS, CHO-K1 hDLL3 cells, 100 nM antibody).

| Binder | MFI [MFI] |
| --- | --- |
| B1 | 15400 |
| B2 | 12900 |
| B3 | 13100 |

These binders were tested against human DLL3 protein expressed on CHO-K1 recombinant cells (human DLL3 extracellular segment fused to EpCAM transmembrane and intracellular regions) (human) (UniProt Q9NYJ7) (assay: FACS, CHO-K1 hDLL3 cells, 0.8 nM antibody).

| Binder | MFI [MFI] |
| --- | --- |
| B1 | 11900 |
| B2 | 11000 |
| B3 | 12000 |

The binders below were run against human DLL3 protein expressed on CHO-K1 recombinant cells (human DLL3 extracellular segment fused to EpCAM transmembrane and intracellular regions) (human) (UniProt Q9NYJ7) (assay: FACS, CHO-K1 hDLL3 cells, 0.16 nM antibody).

| Binder | MFI [MFI] |
| --- | --- |
| B1 | 4700 |
| B2 | 5840 |
| B3 | 5930 |

What follows are binders tested against monkey DLL3 on CHO-K1-cyno DLL3 cells (cynomolgus monkey) (assay: FACS, CHO-K1-cyno DLL3 cells, 0.8 nM antibody).

| Binder | MFI [MFI] |
| --- | --- |
| B1 | 7810 |
| B2 | 6880 |
| B3 | 24300 |

Each binder was assayed against mouse DLL3 on CHO-K1-mDLL3 cells (mouse) (UniProt O88516) (assay: FACS, CHO-K1-mDLL3 cells, 100 nM antibody).

| Binder | MFI [MFI] |
| --- | --- |
| B1 | 580 |
| B2 | 400 |
| B3 | 438 |

What follows are binders tested against human DLL3 protein expressed on CHO-K1 recombinant cells (human DLL3 extracellular segment fused to EpCAM transmembrane and intracellular regions) (human) (UniProt Q9NYJ7) (assay: FACS, CHO-K1 hDLL3 cells, 0.032 nM antibody).

| Binder | MFI [MFI] |
| --- | --- |
| B1 | 1340 |
| B2 | 1540 |
| B3 | 1610 |

The binders below were run against mouse DLL3 on CHO-K1-mDLL3 cells (mouse) (UniProt O88516) (assay: FACS, CHO-K1-mDLL3 cells, 0.8 nM antibody).

| Binder | MFI [MFI] |
| --- | --- |
| B1 | 495 |
| B2 | 327 |
| B3 | 338 |

These binders were tested against human delta-like ligand 3 (DLL3) on SHP77 cells (human) (UniProt Q9NYJ7) (assay: FACS on SHP77 cells).
human delta-like ligand 3 (DLL3) on SHP77 cells (human), sequence (Q9NYJ7 27-618, stated change not applied): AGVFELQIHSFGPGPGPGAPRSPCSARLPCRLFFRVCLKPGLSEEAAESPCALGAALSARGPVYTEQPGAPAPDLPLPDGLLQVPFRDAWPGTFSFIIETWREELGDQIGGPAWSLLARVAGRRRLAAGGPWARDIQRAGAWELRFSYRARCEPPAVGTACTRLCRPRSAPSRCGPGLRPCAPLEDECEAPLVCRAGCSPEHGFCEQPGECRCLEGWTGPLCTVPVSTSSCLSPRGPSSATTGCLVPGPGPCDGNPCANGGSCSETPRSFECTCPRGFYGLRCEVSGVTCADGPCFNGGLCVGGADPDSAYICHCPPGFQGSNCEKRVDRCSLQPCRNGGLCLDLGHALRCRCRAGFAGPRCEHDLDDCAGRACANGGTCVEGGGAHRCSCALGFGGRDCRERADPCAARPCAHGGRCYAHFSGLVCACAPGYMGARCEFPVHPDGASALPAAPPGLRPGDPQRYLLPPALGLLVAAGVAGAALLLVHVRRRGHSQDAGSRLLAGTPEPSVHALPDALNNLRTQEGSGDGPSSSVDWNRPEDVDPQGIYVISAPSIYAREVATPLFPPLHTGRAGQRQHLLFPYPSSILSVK

| Binder | MFI at 0.00128 nM [MFI] | MFI at 0.0064 nM [MFI] | MFI at 0.032 nM [MFI] | MFI at 0.16 nM [MFI] | MFI at 0.8 nM [MFI] | MFI at 4 nM [MFI] | MFI at 20 nM [MFI] | MFI at 100 nM [MFI] |
| --- | --- | --- | --- | --- | --- | --- | --- | --- |
| B1 | 199 | 281 | 528 | 1050 | 1330 | 1500 | 1620 | 1870 |
| B2 | 107 | 129 | 205 | 430 | 692 | 783 | 855 | 969 |
| B3 | 108 | 128 | 201 | 432 | 683 | 784 | 825 | 929 |

What follows are binders tested against human DLL3 protein expressed on CHO-K1 recombinant cells (human DLL3 extracellular segment fused to EpCAM transmembrane and intracellular regions) (human) (UniProt Q9NYJ7) (assay: FACS, CHO-K1 hDLL3 cells, 4 nM antibody).

| Binder | MFI [MFI] |
| --- | --- |
| B1 | 13800 |
| B2 | 11900 |
| B3 | 12700 |

The binders below were run against monkey DLL3 on CHO-K1-cyno DLL3 cells (cynomolgus monkey) (assay: FACS, CHO-K1-cyno DLL3 cells, 0.032 nM antibody).

| Binder | MFI [MFI] |
| --- | --- |
| B1 | 1340 |
| B2 | 423 |
| B3 | 5450 |

Each binder was assayed against monkey DLL3 on CHO-K1-cyno DLL3 cells (cynomolgus monkey) (assay: FACS, CHO-K1-cyno DLL3 cells, 100 nM antibody).

| Binder | MFI [MFI] |
| --- | --- |
| B1 | 10500 |
| B2 | 27000 |
| B3 | 28400 |

Each binder was assayed against mouse DLL3 on CHO-K1-mDLL3 cells (mouse) (UniProt O88516) (assay: FACS, CHO-K1-mDLL3 cells, 0.00128 nM antibody).

| Binder | MFI [MFI] |
| --- | --- |
| B1 | 99 |
| B2 | 86 |
| B3 | 172 |

What follows are binders tested against mouse DLL3 on CHO-K1-mDLL3 cells (mouse) (UniProt O88516) (assay: FACS, CHO-K1-mDLL3 cells, 0.0064 nM antibody).

| Binder | MFI [MFI] |
| --- | --- |
| B1 | 118 |
| B2 | 109 |
| B3 | 238 |

The binders below were run against monkey DLL3 on CHO-K1-cyno DLL3 cells (cynomolgus monkey) (assay: FACS, CHO-K1-cyno DLL3 cells, 4 nM antibody).

| Binder | MFI [MFI] |
| --- | --- |
| B1 | 8510 |
| B2 | 19900 |
| B3 | 27600 |

The binders below were run against human DLL1 protein (Acro, Cat. No. DL1-H52H8) (human) (UniProt O00548) (assay: ELISA, coated hDLL1; maximum over 0.1, 1, 10, 100 nM antibody).
human DLL1 protein (Acro, Cat. No. DL1-H52H8) (human), sequence (O00548 18-540 limits assumed): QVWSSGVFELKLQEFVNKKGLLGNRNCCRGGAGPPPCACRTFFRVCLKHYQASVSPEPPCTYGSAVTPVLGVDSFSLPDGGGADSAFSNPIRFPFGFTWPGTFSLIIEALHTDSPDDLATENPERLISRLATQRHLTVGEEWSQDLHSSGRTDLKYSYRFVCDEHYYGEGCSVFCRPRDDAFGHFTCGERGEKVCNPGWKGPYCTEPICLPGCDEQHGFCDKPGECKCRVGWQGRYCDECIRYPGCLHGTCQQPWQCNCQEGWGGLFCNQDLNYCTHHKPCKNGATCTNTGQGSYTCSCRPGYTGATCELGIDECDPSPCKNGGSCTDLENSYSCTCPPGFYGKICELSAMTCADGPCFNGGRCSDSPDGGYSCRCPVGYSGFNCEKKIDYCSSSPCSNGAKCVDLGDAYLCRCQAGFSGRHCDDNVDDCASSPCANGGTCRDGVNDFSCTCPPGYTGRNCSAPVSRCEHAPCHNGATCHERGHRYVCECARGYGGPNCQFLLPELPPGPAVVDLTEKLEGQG

| Binder | Emax of OD450 nm binding value [OD450 nm] |
| --- | --- |
| B1 | 0.05 |
| B2 | 0.05 |
| B3 | 0.07 |

These binders were tested against monkey DLL3 on CHO-K1-cyno DLL3 cells (cynomolgus monkey) (assay: FACS, CHO-K1-cyno DLL3 cells, 20 nM antibody).

| Binder | MFI [MFI] |
| --- | --- |
| B1 | 9180 |
| B2 | 27100 |
| B3 | 28200 |

These binders were tested against human DLL3 protein expressed on CHO-K1 recombinant cells (human DLL3 extracellular segment fused to EpCAM transmembrane and intracellular regions) (human) (UniProt Q9NYJ7) (assay: FACS, CHO-K1 hDLL3 cells, 0.00128 nM antibody).

| Binder | MFI [MFI] |
| --- | --- |
| B1 | 243 |
| B2 | 199 |
| B3 | 210 |

What follows are binders tested against human DLL3 protein expressed on CHO-K1 recombinant cells (human DLL3 extracellular segment fused to EpCAM transmembrane and intracellular regions) (human) (UniProt Q9NYJ7) (assay: FACS, CHO-K1 hDLL3 cells, 20 nM antibody).

| Binder | MFI [MFI] |
| --- | --- |
| B1 | 14500 |
| B2 | 12400 |
| B3 | 12600 |

What follows are binders tested against mouse DLL3 on CHO-K1-mDLL3 cells (mouse) (UniProt O88516) (assay: FACS, CHO-K1-mDLL3 cells, 20 nM antibody).

| Binder | MFI [MFI] |
| --- | --- |
| B1 | 605 |
| B2 | 383 |
| B3 | 398 |

What follows are binders tested against mouse DLL3 on CHO-K1-mDLL3 cells (mouse) (UniProt O88516) (assay: FACS, CHO-K1-mDLL3 cells, 0.032 nM antibody).

| Binder | MFI [MFI] |
| --- | --- |
| B1 | 185 |
| B2 | 166 |
| B3 | 272 |

What follows are binders tested against human DLL3 protein (extracellular segment, His tag) (human) (UniProt Q9NYJ7) (assay: SPR (Biacore 8K), antibody captured on Protein A chip, DLL3 antigen in solution, 1:1 Langmuir fit).
human DLL3 protein (extracellular segment, His tag) (human), sequence (Q9NYJ7 27-492): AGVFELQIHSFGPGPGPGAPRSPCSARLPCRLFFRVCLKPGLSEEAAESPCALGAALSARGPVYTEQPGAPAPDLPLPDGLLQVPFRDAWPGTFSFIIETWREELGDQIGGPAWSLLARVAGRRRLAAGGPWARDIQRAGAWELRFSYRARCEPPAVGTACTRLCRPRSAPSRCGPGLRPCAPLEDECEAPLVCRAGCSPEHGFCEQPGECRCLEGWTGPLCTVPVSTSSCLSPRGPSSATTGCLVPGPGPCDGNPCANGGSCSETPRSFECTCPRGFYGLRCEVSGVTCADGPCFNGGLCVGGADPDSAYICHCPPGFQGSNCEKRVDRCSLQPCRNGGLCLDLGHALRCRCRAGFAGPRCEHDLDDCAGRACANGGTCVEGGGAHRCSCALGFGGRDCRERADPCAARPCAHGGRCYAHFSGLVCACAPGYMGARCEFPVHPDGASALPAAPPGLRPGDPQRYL

| Binder | Kd [nM] | koff [s⁻¹] | kon [M⁻¹ s⁻¹] |
| --- | --- | --- | --- |
| B1 | 0.395 | 0.000156 | 394000 |
| B2 | 0.325 | 0.00194 | 5.96e+06 |
| B3 | 0.328 | 0.0019 | 5.79e+06 |

Each binder was assayed against mouse DLL3 on CHO-K1-mDLL3 cells (mouse) (UniProt O88516) (assay: FACS, CHO-K1-mDLL3 cells, 4 nM antibody).

| Binder | MFI [MFI] |
| --- | --- |
| B1 | 577 |
| B2 | 367 |
| B3 | 358 |
